The text below walks through data of PMC3643854.

For assay [1], the target named is HIV-1 AD8 gp120 surface glycoprotein. Put plainly: Western blotting of pelleted virions (virion-associated gp120 normalised to p24). The note with it: virions from 293T cells transfected with pAD8 proviral clones; virions were analysed at 48 h posttransfection; parent: 2.16. For orientation: A western blot detects proteins with antibodies after separation by electrophoresis.

For assay [2] the target is unchanged. Description: immunoprecipitation of pulse-chase biosynthetically labelled Env from cell lysates (c) and supernatants (s), SDS-PAGE and phosphorimaging. The note with it: transfected 293T cells; cellular Env was analysed 5 h post synthesis; parent: 1.
Assay [3] has as its target HIV-1 AD8 gp41 W596L/K601H (HIV-1 AD8).
The target in assay [4] is HIV-1 AD8 gp41 W596L/K601H/D674E (HIV-1 AD8).

As for “HIV-1 AD8 gp41 transmembrane glycoprotein, wild type WL/KH/DG”, the other: gp120 pixels/p24 pixels in assay [1] stood at 0.8. Also, the ratio to parent in assay [2] stood at 5.36.
Turning to “HIV-1 AD8 gp41 transmembrane glycoprotein, wild type W596L; K601H”, the other: gp120 pixels/p24 pixels in assay [1] was found to be 0.93. In addition, in assay [2], the ratio to parent amounted to 3.37.
On to “HIV-1 AD8 gp41 transmembrane glycoprotein, wild type WL/KH/DN”, for which, in assay [1], the other: gp120 pixels/p24 pixels worked out at 0.67. Besides, in assay [2], the ratio to parent was 3.96.
With C34 fusion inhibitor peptide, the neutralization of HIV-1 AD8 virus in TZM-bl cells (luciferase), C34 IC50 against that for WT virus (log10 decrease against WT) in assay [3] and in assay [4] was 0.5 each time.
With “HIV-1 AD8 gp41 transmembrane glycoprotein, wild type ΔTW/WL/KH/DN”, the other: gp120 pixels/p24 pixels in assay [1] is 0.6. Also, the ratio to parent in assay [2] amounted to 4.13.
“HIV-1 AD8 gp41 transmembrane glycoprotein, wild type W596L; K601H; D674E”: in assay [1], the other: gp120 pixels/p24 pixels came to 1.07. Besides, the ratio to parent in assay [2] is 3.59.
